Like-named read-outs stand apart in the source and are kept apart here.
Tests used:
[1] = biological target: Drc (ssDNA-binding RNA Polymerase Cofactor), Pseudomonas virus LUZ7 gp14 (Pseudomonas virus LUZ7); assay: crystal structure
[2] = biological target: Drc(Δ67–99) (Pseudomonas virus LUZ7); assay: SEC
Drc (gp14) [3] = biological target: T1, Drc (gp14) (Pseudomonas phage LUZ7, UniProt C8ZKB3); assay: EMSA
T1 sequence: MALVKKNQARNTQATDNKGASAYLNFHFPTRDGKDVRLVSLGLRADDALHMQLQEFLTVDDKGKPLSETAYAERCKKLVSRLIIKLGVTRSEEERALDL

Drc (gp14) [4] = biological target: T1, Drc (gp14); assay: EMSA; remark: listed apart in the source

In the case of “Drc (ssDNA-binding RNA Polymerase Cofactor), Pseudomonas virus LUZ7 gp14 (natural protein)”, the stoichiometry N [1] is reported as 2.

With Drc(Δ67–99) (domain or fragment) the stoichiometry N [2] was 2.

TGAGTTTTTTTCATTTTTTGCGTAAATTTC (ssDNA) [30-nt ssDNA]: binds (Drc (gp14) [3]).

B1: internally melted duplex (dsDNA)
DNA 1: GGGCGGCGGTTTTTTTTTTGCGGGGCGG
DNA 2: CCGCCCCGCTTTTTTTTTTCCGCCGCCC
B1: binds (Drc (gp14) [4]).

From publication PMC7145618
